Assay in all cases: fluorescence polarization
On the technique in general: Fluorescence polarisation rises when a labelled molecule tumbles more slowly, as on binding a larger partner.

The target in one data set is T1, PUF-8 WT (FP) (Caenorhabditis elegans, UniProt Q09487 172-535).
T1 sequence: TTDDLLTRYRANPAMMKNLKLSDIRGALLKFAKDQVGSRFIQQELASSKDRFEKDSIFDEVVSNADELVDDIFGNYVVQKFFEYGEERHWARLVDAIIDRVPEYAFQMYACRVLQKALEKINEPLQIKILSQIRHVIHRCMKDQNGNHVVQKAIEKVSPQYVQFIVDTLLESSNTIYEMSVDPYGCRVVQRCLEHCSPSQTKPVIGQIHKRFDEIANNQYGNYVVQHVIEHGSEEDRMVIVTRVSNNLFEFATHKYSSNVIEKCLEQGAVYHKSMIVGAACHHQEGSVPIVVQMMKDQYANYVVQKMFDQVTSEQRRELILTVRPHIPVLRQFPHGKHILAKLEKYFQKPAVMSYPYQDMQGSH

The next data set deals with T2, MUT-4N (Caenorhabditis elegans, UniProt Q09487 172-535, N318A;H319A;Q322A).
T2 sequence: T1 sequence with N147A, H148A, Q151A

For a further data set, the target named is T3, MUT-4A (Caenorhabditis elegans, UniProt Q09487 172-535, N318C;H319R).
T3 sequence: T1 sequence with N147C, H148R

The next data set concerns the target T4, MUT-8G (Caenorhabditis elegans, UniProt Q09487 172-535, N472S;Y473N;Q476E).
T4 sequence: T1 sequence with N301S, Y302N, Q305E

Another data set addresses T5, MUT-4C (Caenorhabditis elegans, UniProt Q09487 172-535, N318C;H319Y;Q322R).
T5 sequence: T1 sequence with N147C, H148Y, Q151R

The target of a further data set is T6, MUT-4G (Caenorhabditis elegans, UniProt Q09487 172-535, N318S;H319N;Q322E).
T6 sequence: T1 sequence with N147S, H148N, Q151E

Broadly, the Kd is the constant that tells how readily two partners part at equilibrium.

Numbering of substitutions follows the chain as printed.

Take UGUACAUA (ssRNA) [PBE-5C FAM]: the Kd in the data set with PUF-8 WT (FP) was found to be 0.84 ± 1.08 nM; with MUT-4N, 349 ± 83.2 nM; with MUT-4A, 0.64 ± 0.2 nM; in the data set with MUT-4C, 2.91 ± 0.36 nM; in the data set with MUT-4G, 1350 ± 507 nM. Also, in the data set with MUT-8G, the binding result is recorded as “no binding”.
GGUACAUA (ssRNA) [PBE-1G FAM]: the dissociation constant (Kd) was 128 ± 25.1 nM in the data set with PUF-8 WT (FP), 159 ± 34.1 nM with MUT-4A and 207 ± 23 nM in the data set with MUT-4C. In addition, the binding result with MUT-4N, with MUT-8G and with MUT-4G was “no binding” throughout.
Take UGUAUAUA (ssRNA) [PBE-5U FAM]: the dissociation constant Kd is 1.27 ± 1.16 nM with PUF-8 WT (FP); 313 ± 58.2 nM with MUT-4N; 5.85 ± 1.64 nM with MUT-4A; 3.72 ± 0.94 nM with MUT-4C; 775 ± 276 nM with MUT-4G. Moreover, in the data set with MUT-8G, the binding result is listed as “no binding”.
Take UGUAGAUA (ssRNA) [PBE-5G FAM]: the dissociation constant (Kd) in the data set with PUF-8 WT (FP) was 12.8 ± 5.63 nM; with MUT-4N, 180 ± 22.8 nM; with MUT-4A, 9.99 ± 3.11 nM; in the data set with MUT-4C, 11.3 ± 3.43 nM; with MUT-4G it was 29.8 ± 9.14 nM. The binding result with MUT-8G was “no binding”.
Take AUACAUGU (ssRNA) [Control RNA FAM]: the binding result in the data set with MUT-4N, in the data set with MUT-4A, with MUT-8G, with MUT-4C and with MUT-4G was “no binding” throughout.

Values taken from paper PMC8464079.
